{"source": "the nanobody polyreactivity screen of Harvey et al. (2022)"}
{"assay": "yeast display, Sf9 membrane polyspecificity reagent, FACS + sequencing; frameworks hold sequencing errors", "how_it_was_run": "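In a synthetic yeast display library (Saccharomyces cerevisiae BJ5465), nanobody expression was induced with galactose for 36–48 hours. FACS gates were set low and high (top ~1%) using anti-HA fluorescence for expression and streptavidin fluorescence for binding of the Sf9 membrane reagent. Each polyreactivity label is drawn from the gate of origin.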"}
{"sequence": "QVQLVESGVGLVQAGGSLRLSCAASGITFVDYGMGWYRQAPGKERELVSAISRSGGSTYYADSVKGRFTISRDNAKNTVYLQMNSLKPEDTAVYYCATVLSRVRNSDKYWGQVTQVTVSS", "polyreactivity (PSR sort gate)": "high polyreactivity"}
{"sequence": "QVQLVESGGGLVQAGGSLRLSCAASGSTFGRNAMGWYRQAPGKERELVAAISNGGSTNYADSVKGRFTISRDNAKNTVYLQMNSLNPEDTAVYYCNRRVPYSFYSRGYYYWGQGTQVTVSS", "polyreactivity (PSR sort gate)": "high polyreactivity"}
{"sequence": "QVQLEESGGGVVQAGGSLRLSCAASGSIFRKYAMGWYRQAPGKERELVATISWNGGRTHYADSVKGRFTISRDNAKNTVYLLMNSLKPEDTAVYYCNKDAASFRHFYGYGYWGQGTQVTVSS", "polyreactivity (PSR sort gate)": "low polyreactivity"}
{"sequence": "QVQLVESGGGLVQAGGSLRISCAASGSISVYNAMGWYRQAPGKERELVAAISWSGGRTSYADSVKGRFTISRDNAKKTVYLQMNSLKPEDTEVYYCAADELTVLWDEDYWGQGTQVTVSS", "polyreactivity (PSR sort gate)": "low polyreactivity"}
{"sequence": "QVQLVESGGGLVQAGGSLRLSCAASGSTFPKYAMGWYRQAPGKERELVASISVTTGSTYYADSVKGRFTISRDNAKITVYLQMNSLKPEDTAVYYCAKYRPGIPYYQYGSWGQGTQVTVSS", "polyreactivity (PSR sort gate)": "high polyreactivity"}
{"sequence": "QVQLVESGGGLVQAGGSLRLSCAASGFTFGIYAMGWYRPATVKERELVAAISSSGGSTYYADSVKGRFTISRDNAKHTVYLQMNSLKPEDTAVYYCNAGALYRVYPYRGKLAYITYDSWGQGTQVTVSS", "polyreactivity (PSR sort gate)": "high polyreactivity"}
{"sequence": "QVQLVESGGGLVQAGGSLRLSCAASGSTFYIYAMGWYRQAPGKERELVATISRGGSTNYADSVKGRFTISRDNAKNTVYLQMNSLKPEDTAVYYCAAEAAFTSYWWSVTYPYDYWGQGTQVTVSS", "polyreactivity (PSR sort gate)": "high polyreactivity"}
{"sequence": "QVQLVESGGGLVQAGGSLRLSCAASGSTFWYYTMGWYRQAPGKERELVAGITSGGSTYYADSVKGRFTISRDNAKNTVYLQMNSLKPEDTAVYYCAKRYYGRGYYYWGQGTQVTVSS", "polyreactivity (PSR sort gate)": "high polyreactivity"}
{"sequence": "QVQLVVSGGGLVQPGGSLRLSCAASGRIFGLYAMGWYRQAPGKEREVVAAYADSVKGRFTISRDNAKNTVYLQMNSLKPEDTAVYYCAKGPLYAGYSIDLRDFNYWGQGTQVTVSS", "polyreactivity (PSR sort gate)": "low polyreactivity"}
{"sequence": "QVQLVESGGGLVQAGGSLRLICAASGIIFQYYAMGWYRQAPGKERELVAAISWSGGSTYYADSVKGRFTISRDNAKNTVYLQMNSVKPEETAVYYCNAVYYSRIVGVRIYDYWGQGTQVTVSS", "polyreactivity (PSR sort gate)": "low polyreactivity"}
{"sequence": "QVQLVESGGGLVQAGGSLRLSCAASGRTFSSYAMGWYRQAPGKEREFVAAISRSGASTRYADSVKGRFTISRDNAKNTVYLQMNSLKPEDTAVYYCAAVWPDVRGYDYWGQGTQVTVSS", "polyreactivity (PSR sort gate)": "high polyreactivity"}
{"sequence": "QVQLVESGGALVQAGGSLRLRCAASGTFFIYAMGWYRQAPGKEREFVATISTGGSTNYADSVKGRFTISRDNAKNTVYLQMNSLKPADTAVYYCAAEWLYPHDGGYRRPMDYWGQGTKVTVSS", "polyreactivity (PSR sort gate)": "low polyreactivity"}
{"sequence": "QVQLVESGGGLVQAGGSLRLSCAASGFIFTPYAMGWYRQAPGKERELVAAIRSGTSTNYADSVKGRFTISRDNAKNTVYLQMNSLKPEDTAVYYCAAEEGLIDGRAWYGYWGQGTQVTVSS", "polyreactivity (PSR sort gate)": "low polyreactivity"}
{"sequence": "QVQLVESGGGLVQAGGSLRLSCAASGSICRRNDMGWYRQAPGKERELVAAISSNGGSTYYADSVKGRFTISRDNAKNTVYLQMNSLKPEDTAVYYCNALVRVRYSPRYGYDYWGQGTQVTVSS", "polyreactivity (PSR sort gate)": "high polyreactivity"}
{"sequence": "QVQLVESGGGLVQAGGSLLLSCAASGITFIRNGMGWYRPAPGKERELVAAISDTGARTYYADSVKGRFTISRDNAKNTVYLQMNSLKPEDTAVYYCAADFQTYWSHLYGYIGQYDYWGQGTQVTVSS", "polyreactivity (PSR sort gate)": "low polyreactivity"}
{"sequence": "QVQLVESGGGLVQAGGSLRLSCAASGRIFYGNAMGWYRQPPGKERELFAGITRSSGTSTYYADSVKVRFTISRDNAKYTVYLQMNSMNPEDTAVYYCAAPPDSYYYYKVPVVPYDYWGQGTQVTVSS", "polyreactivity (PSR sort gate)": "low polyreactivity"}
{"sequence": "QVQLVESGGGLLQAGGSLRLSCAASGYTSSRYAMGWYRQAPGKESELLAAISGTGGSTNYADSVKGRFTISRDNAKNTVYLQMNRLKPEDSAVYYCATRSFGAGYVGVRYYYWGQATQVTVSS", "polyreactivity (PSR sort gate)": "high polyreactivity"}
{"sequence": "QVQLVESGGGLVQAGGSLRLSCAASGSTFSYNAMVWYRQAPRKERELVAAISRRGDNTYYADSVKGRFTISRDNAKNTVYLQMYSLKPEDTAVYYCAAVGYFVKQYAPRYGYWGHGTQVTVSS", "polyreactivity (PSR sort gate)": "low polyreactivity"}
{"sequence": "QVQLVESGGGLVQAGGSLRLSCAASGNTFRIYTMGWYRQSPGKEMELVATITRRGGSTYYADSVKGRFTISRDYAKNTVYLQMKSLKPEDTAVYYCAATTKLPRGHYWNYYWGQGTQVTVSS", "polyreactivity (PSR sort gate)": "high polyreactivity"}
{"sequence": "QVQLVESGGGIFQAGGSLRLSCDASGFTIGAYAMGWYRQAPGKERELVAAITLRTGGSTYYADSLKGRFTISRDNAKNTVYLQMNSLKPEDTAVYYCATYGSYWRKSRAPGYYYGGQGTQVTVSS", "polyreactivity (PSR sort gate)": "high polyreactivity"}
{"sequence": "QVQLVESGGGLVQAGGSLRLSCAASGYTFRYYVMGWYRQAPGKERELDAAISQRGGSTYYADSVKGRFTISRDNAKNTVYLQMNSLKPEDTAVYYCAASYSTYASRGYGYWGQGTQVTVSS", "polyreactivity (PSR sort gate)": "high polyreactivity"}
{"sequence": "QVQLVESGGGLVQAGGSLRLSCAASGNTFAVNAMVWSRQAPGKERELVAAISRTGGRTYYADSVKGRFTISRDNAKNTVYLQMNSLKPEDTAVYYCAAEYYYTSQLAKYHYGYEYWGQGTQVTVSS", "polyreactivity (PSR sort gate)": "high polyreactivity"}
{"sequence": "QVQLVESGGGLVQAGGSLRLSCAASGFIFYPYVMGWYRQAPGKERELVATIRTDGRTSYADSVKGRFTISRDNAKNTVYLQMNSLKPEDTAVYYCNTKYVRYYRRYDSWGQGTQVTVSS", "polyreactivity (PSR sort gate)": "high polyreactivity"}
{"sequence": "QVQLVESGGGLVQAGGSLRLSCAASGRIFGINAMGWYRQAPGKERELVAAIDSAGRTYYADSVKGRFTISRDNAKNTVYLQMNSLKPEDTAVYSCNKDHSLYEHNYWGQGTQVTVSS", "polyreactivity (PSR sort gate)": "low polyreactivity"}
{"sequence": "QVQLVESGGGLVQAGGSLRLSCAASGFTFGIYAMGWYRQAPGKERELVADISSGGSTYYADSVKGRFTISRDNAKNTVYLQMNSLKPEDTAVYYCARDSWWYHHYDYWGQGTQVTVSS", "polyreactivity (PSR sort gate)": "low polyreactivity"}
{"sequence": "QVQLVESGGGLVQAGGSLRLSCAASGSIFATYAMGWYRQAPGKERELVAAITSSDGSTNYADSVKGRFTISRDNAKNTVYLQMNSLKPEDTAVYYCATDAPDRTDSDSGFDAGYDYWGQGTQVTLSS", "polyreactivity (PSR sort gate)": "low polyreactivity"}
{"sequence": "QVQLVESGGGLVQAGGSLRLTCAASGRTFQYYVMVWYRQAPGKEREFVAAISTSGGRTYYADSVKGRFTISRDNAKNSVYLQMNSLKPEATAVYYCAATGFSYRYFQTRDYWGQGTQVTVSS", "polyreactivity (PSR sort gate)": "high polyreactivity"}
{"sequence": "QVQLVESVGGLVQAGGSLRLSCAASGRIFVYYAMGWYRQAPGKERELVAAINSSGGRTYYADSVKGRVTISRDNAKNTVSLQMNSLQPEDTAVYYCAAVYRSWTSSNGRNYWGQGTQVTVAS", "polyreactivity (PSR sort gate)": "high polyreactivity"}
{"sequence": "QVQLVESGGGLVQAVGSLRLSCAASGSTFREYTMGWYRQAPGKERELVAAITNSGGSTYYADSVKGRFTISRDNAKNTVYLQMNSLKPEDTAVYYCAAEGRYFYFTVKMDYWGQGTQVTVSS", "polyreactivity (PSR sort gate)": "low polyreactivity"}
{"sequence": "QVQLVESGGGLVQAGGSLRLSCAASGRIFSYYAMGWSRQAPGNERELVAAITWSGGRTYYADSVKGRFTISRDNAKNTVYLQMNSLNPEDTAVYYCAADYYYGSLWDNKLGYWGQGTQVTVSS", "polyreactivity (PSR sort gate)": "high polyreactivity"}
{"sequence": "QVQLVESGGGLVQAGGSLSLSCAASGYTFSYYAMGWYRQAPGKERELVARITYSGGSTYYADSVKGRFTISRDNAKNTGYLQIKSLKPEDTAVYYCAARLRYPYWYYYWGQGTQVTVSS", "polyreactivity (PSR sort gate)": "high polyreactivity"}
{"sequence": "QVQLVESGGGLVQAGGSLRLSCAASGSIFLKYAMGWYRQAPGKERELVAAISRGGDTNYADSVKGRFTISRDNAKNTVYLQMNSLKPEDTAVYYCAARPGLYFTRRGRYYWGQGTQVTVSS", "polyreactivity (PSR sort gate)": "high polyreactivity"}
{"sequence": "QVQLVESGGGLVQAGGSLSLSCAASGRIFRVYAMGWYRQAPGKERELVAAISSRGGRTYYADSVKGRFTISRDNAKNTVYLQMNSLKPEDTAVYYCAADGRSSSRATSRYDYWGQGTQVTVSS", "polyreactivity (PSR sort gate)": "high polyreactivity"}
{"sequence": "QVQLVESGGGLVQAGGSLRLSCAASGRIFVGYAMGWYRQAPGKEREFVAAITFRGGTTYYADSVKGRFTITRDYAKNTVYLQMNSLKPEDTAVYYCAVPLYLYSVEYGYWGQGNQVTVSS", "polyreactivity (PSR sort gate)": "low polyreactivity"}
{"sequence": "QVQLVESGGGLVQAGGSLRLSCAASGSTFALYTMGWYRQAPGKERELVAAIRYGGGSTYYADSVKGRFTISRDNAKNTVYLQMNSLKPEDTAVYYCARDLYNLYSGSYYWGQGTQVTVSS", "polyreactivity (PSR sort gate)": "low polyreactivity"}
{"sequence": "QVQLVESGGGLVQAGGSLRLSCAASGRTFAYYAMGWYRQAPGKERELVAAIRRSGRTNYADSVKGRFTISRDNAKNTVYLQMNSLKQEDTAVYYCAADYWQGDLRYDYWGQGTQVTVSS", "polyreactivity (PSR sort gate)": "low polyreactivity"}
{"sequence": "QVQLVESGGGLVQAGGSLRLSCAASGRIFRVYAMGWYRPAPGKERELVATIRRGSSTYYADSVKGRFTISRDNAKNTVYLQMNSLKPEDTAVYYCADRSSRRGPISEGDYWGQGTQVTVSS", "polyreactivity (PSR sort gate)": "high polyreactivity"}
{"sequence": "QVQLVESGGGLVQAGGSLRLSCAASGRIFPWNDMGWYRQAPGKERELVAAITYRGGRTYYADSVKGRFTISRDNAKNTVYLQMNSLKPEDTAVYYCAKTRYFSVGPHWDYYYWGQGTQVTVSS", "polyreactivity (PSR sort gate)": "high polyreactivity"}
{"sequence": "QVQLVESGGGLVQAGGSLRLSCAASGLTVVIYAMGWYRKAPGKERELVARITCSGGSTYYADSVKGRFTISRDNAKNTVYLQMISLQPEVTAVYYCAARRFYYYNAVYDYWGQGTQVTVSS", "polyreactivity (PSR sort gate)": "low polyreactivity"}
{"sequence": "QVQLVESGGGLVQAGGSLRLSCAASGSTLGYYAMGWYRQAPGKERELVAAITSSDGGTYYADSVKGRFTISRDNAKNTVYLQMNSLKPEDTAVYYCAKRRYTSAFGSWYAYDYWGQGTQVNVSS", "polyreactivity (PSR sort gate)": "high polyreactivity"}
{"sequence": "QVQLVESGGGLVQAGASLRLSCAASGFTFDENAMGWYRQAPGINYSGASTYYAHSVKGRFTISRDNAKNTVYIHMNSLQPEDTAVYYCAAEVVAQMNYWGQGTQVTVSS", "polyreactivity (PSR sort gate)": "low polyreactivity"}
{"sequence": "QDQLVESGGGLVQAGGSLRLSCAASGITFDRYALGWYRQAPGKEREFVAAISWRGGSTYYADSVKGRFTISRDNAKNTVYLQMNSLKPEDTAVYYCAVGYYDHDYWYEYWGQGSQVTVSS", "polyreactivity (PSR sort gate)": "high polyreactivity"}
{"sequence": "QVQLVESGGGLVQAGGSLRLSCAASGSTFVYYAMGWYRQAPGKERELVAAISYSGGRTYYADSVKGRFTISRDNAKNTVYLQMNSLKQEDTAVYYCAAAYVKFYGYSAEYDYWGQGTQVTVSS", "polyreactivity (PSR sort gate)": "low polyreactivity"}
